Reference: patent US20180348220

What was measured:
Test in all cases: flow
Conditions in all cases: whole cells, 4C
[1] = test system: unidentified cell-surface target of MCF7 cells (Homo sapiens)
[2] = test system: unidentified cell-surface target of T-47D cells (Homo sapiens)
[3] = test system: unidentified cell-surface target of MDA-MB-231 cells (Homo sapiens)

“CGGCGGTCNGTCGAACTGTNATGAGCGTGCCGCCGCGCGTAGCG [14A-MCF7mh (44DsDs)]” was tested, and the Kd ([1]; n = Ds, ±0.2) was 1.9 nM.
With “GCGGCGAAGATCACNACTAGGGGNCCTCGCCGC [03-T47D (DsDs)]” the Kd ([2]; n = Ds at 15 and 24, ±6.7) was 91.6 nM.
Sequence “GGCGGTCNGTCGAACTGTNATGAGCGTGCCGCCCGCGTAGCG [14A-MCF7mh]” has a Kd ([1]; n = Ds, ±0.2, printed 14A-MCF7rmh) of 2.1 nM.
In the case of “CCCTCTTAAGTTTATAGNTGTCTTTTGGTNCCTAGGGCGTTTTAAAGGGCGCGTAGCG [23-MB231bmh]”, the Kd ([3]; n = Ds, ±0.9) is reported as 2.5 nM.
“GCGGCGAAGATCACNACTAGGGGNCCTCGCCGCCGCGTAGCG [03-T47Dmh]” showed a Kd ([2]; n = Ds, ±3.0) of 39.3 nM.
Work on “GGCGCCAGGGGTGTTTGTGCCGTGAGNTGTGGCGCCCGCGTAGCG [05-MB231GCmh]” yielded a Kd ([3]; n = Ds, ±0.1) of 1.6 nM.
Sequence “CCGCGCAGCCTGGGNTCTCTTTTAGTCNAGTTCAATCGCGCGGCGCGTAGCG [07-MB231mh]” has a Kd ([3]; n = Ds, ±0.3) of 2 nM.
For “CCGCGCAGCCTGGGNTCTCTTTTAGTCNAGTTCAATCGCGCGG [07-MB231 (DsDs)]”, the Kd ([3]; n = Ds at 15 and 28, ±0.5) was 2.2 nM.
Work on “CCCTCTTAAGTTTATAGNTGTCTTTTGGTNCCTAGGGCGTTTTAAAGGG [23-MB231b]” yielded a Kd ([3]; n = Ds, ±5.6) of 23.3 nM.
“GGCGCCAGGGGTGTTTGTGCCGTGAGNTGTGGCGCC [05-MB231GC]” showed a Kd ([3]; n = Ds, ±0.2) of 2.2 nM.
Work on “GGCCCGGCTGGCATGTANTCATGCCTCCTGGNCTAAGGTTTCTAAAGGGCC [08B-MCF7 (51DsDs)]” yielded a Kd ([1]; n = Ds at 18 and 32, ±0.3) of 3.2 nM.
Work on “GGCCCGGCTGGCATGTANTCATGCCTCCTGGNCTAAGGTTTCTAAAGGGCCCGCGTAGCG [08B-MCF7mh]” yielded a Kd ([1]; n = Ds, ±0.1 (printed 01)) of 2.5 nM.
Work on “GCGGTCNGTCGAACTGTNATGAGCGTGCCGCCGCGTAGCG [14A-MCF7mh (40DsDs)]” yielded a Kd ([1]; n = Ds, ±0.2) of 2.2 nM.
In the case of “CGGTCNGTCGAACTGTNATGAGCGTGCCGCGCGTAGCG [14A-MCF7mh (38DsDs)]”, the Kd ([1]; n = Ds, ±0.02) is reported as 2.6 nM.
“CTCTAGTCNGTCGAACTGTNATGAGCGTGCTAGGGGG [14A-MCF7 (37DsDs)]” gave a Kd ([1]; n = Ds, ±0.1, Mg2+) of 2.1 nM.
“GGCCCGGCTGGCGAAGCCTCCTGGNCTAAGGTTTCTAAAGGGCCCGCGTAGCG [08B-MCF7mh2]” was tested, and the Kd ([1]; n = Ds, ±0.1) was 2.3 nM.
